From US9828628

Legend:
[1] = target: HIV-1 gp41 epitope peptide with linker, conjugated to 17-base DNA (peptide-linker-DNA) and hybridized to the modular oligonucleotide probe (HIV-1); assay: fluorescent modular DNA probe with two gp41 peptide copies, titrated with antibody; two-state fit
[2] = target: HIV-1 gp41 epitope peptide with linker, conjugated to 17-base DNA (peptide-linker-DNA) and hybridized to the modular oligonucleotide probe (HIV-1); assay: electrochemical modular probe (methylene blue, square wave voltammetry) on a gold electrode, antibody titration in 80% whole blood [panel c (lower]

antibody 2F5 specific for gp41 (Polymun Scientific)
Kd [1]: 4 nM | Kd [2]: 33 nM
